Laboratory results taken from publication PMC10117238, “Molecular mechanism underlying the increased risk of colorectal cancer metastasis caused by single nucleotide polymorphisms in LI-cadherin gene” (Scientific Reports, 2023).

Columns and labels:
[1] = molecular target: LI-cadherin EC1-2 (Homo sapiens) (UniProt Q12864); assay: SV-AUC; details: cited from earlier work
[2] = molecular target: LI-cadherin EC1-4 (Homo sapiens) (UniProt Q12864); assay: SV-AUC; details: cited from earlier work
[3] = molecular target: the molecule itself; assay: AUC; sedimentation velocity (SV-AUC), 20 °C, 42,000 rpm, UV detection; 1-120 µM EC1-4K115E or 1-60 µM EC1-2K115E; buffer A (10 mM HEPES-NaOH pH 7.5, 150 mM NaCl, 3 mM CaCl2); homodimer to monomers
LI-cadherin EC1-2K115E = molecular target: T1, LI-cadherin EC1-2K115E (human); assay: as above; details: both partners purified
T1 chain: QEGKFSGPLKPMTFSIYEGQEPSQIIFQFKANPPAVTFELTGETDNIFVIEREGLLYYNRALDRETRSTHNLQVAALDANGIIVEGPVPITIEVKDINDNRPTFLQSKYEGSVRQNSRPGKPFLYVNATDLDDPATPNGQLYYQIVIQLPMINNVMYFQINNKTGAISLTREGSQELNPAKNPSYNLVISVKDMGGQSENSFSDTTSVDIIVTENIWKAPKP

LI-cadherin EC1-2 (from UniProt Q12864)
Kd [1]: 75 µM

LI-cadherin EC1-4 (from UniProt Q12864)
Kd [2]: 39.8 µM

B1: LI-cadherin EC1-4K115E (domain or fragment, human)
chain: QEGKFSGPLKPMTFSIYEGQEPSQIIFQFKANPPAVTFELTGETDNIFVIEREGLLYYNRALDRETRSTHNLQVAALDANGIIVEGPVPITIEVKDINDNRPTFLQSKYEGSVRQNSRPGKPFLYVNATDLDDPATPNGQLYYQIVIQLPMINNVMYFQINNKTGAISLTREGSQELNPAKNPSYNLVISVKDMGGQSENSFSDTTSVDIIVTENIWKAPKPVEMVENSTDPHPIKITQVRWNDPGAQYSLVDKEKLPRFPFSIDQEGDIYVTQPLDREEKDAYVFYAVAKDEYGKPLSYPLEIHVKVKDINDNPPTCPSPVTVFEVQENERLGNSIGTLTAHDRDEENTANSFLNYRIVEQTPKLPMDGLFLIQTYAGMLQLAKQSLKKQDTPQYNLTIEVSDKDFKTLCFVQINVID
notes: Liver Intestine-cadherin (LI-cadherin, CDH17), human; the first four N-terminal extracellular cadherin repeats EC1-4, with the SNP change Lys115 to Glu (c.343A>G); Made in mammalian cells, N-glycosylated; K115E is a SNP variant found in patients, made here by site-directed mutagenesis; also called K115E of EC1-4; source: Expi293F, transfected (pcDNA3.4), purified from the supernatant (Ni-NTA, SEC)
Kd [3]: 51.6 µM
stoichiometry N [3]: 2

B2: LI-cadherin EC1-2K115E (domain or fragment)
chain: T1 chain
modifications: N-glycosylated (Expi293F expression, N-glycans on EC2); Ca2+-bound (3 mM CaCl2). Limits by convention: mature N-terminus Gln23 (as in 7CYM) to end of UniProt Cadherin 2 domain (244). C-terminal …
Kd (LI-cadherin EC1-2K115E): 343 µM
stoichiometry N (LI-cadherin EC1-2K115E): 2
